The source of these data is article PMC4660580, “Mode of interaction of the Gαo subunit of heterotrimeric G proteins with the GoLoco1 motif of Drosophila Pins is determined by guanine nucleotides” (Bioscience Reports, 2015).

Ends that are not written are not given here. Peptide text beside a SMILES is read from it. * marks the point of attachment. Dansyl = CN(C)c1cccc2c(S(=O)(=O)*)cccc12

Assay [1] deals with Hexahistidine-tagged Drosophila Gαo (class II isoform), wild type (Drosophila). The assay is described as follows: FRET or BRET; Trp-to-dansyl FRET (excitation 280 nm, emission 535 nm), saturation: 10 μM Gαo preloaded with 1 mM GDP added to increasing dansylated GoLoco1; HKB buffer (50 mM Hepes-KOH, 100 mM KCl, 10 mM NaCl, 2 mM EGTA, 5 mM MgCl2, 1 mM DTT), 30 min, RT.
Assay [2] has the same target. Put plainly: FRET or BRET; Trp-to-dansyl FRET (excitation 280 nm, emission 535 nm), saturation: 10 μM Gαo preloaded with 1 mM GTPγS added to increasing dansylated GoLoco1; HKB buffer, 30 min, RT. Background: Bioluminescence resonance energy transfer reports proximity on the nanometre scale.
For assay [3], the target named is Hexahistidine-tagged Drosophila Gαo[W132F; W259F] (Drosophila). Put plainly: FRET or BRET; quenching of the donor: tryptophan fluorescence (excitation 280 nm, emission 330 nm) of 5 μM Gαo preloaded with GTPγS, 30 min with dansylated against unlabelled GoLoco1, RT; E = 1 - FD-A/FD.
In assay [4] the target is Hexahistidine-tagged Drosophila Gαo[W132F; W212F] (Drosophila). The assay is described as follows: FRET or BRET; quenching of the donor: tryptophan fluorescence (excitation 280 nm, emission 330 nm) of 5 μM Gαo preloaded with GDP, 30 min with dansylated against unlabelled GoLoco1, RT; E = 1 - FD-A/FD.
For assay [5], the target named is Hexahistidine-tagged Drosophila Gαo[W132F; W259F] (Drosophila). The description is as above.
Assay [6] concerns the target Hexahistidine-tagged Drosophila Gαo (class II isoform), wild type (Drosophila). The assay is described as above.
In assay [7] the target is T1, Gαo-GTPγS (Drosophila melanogaster, UniProt P16378). The assay is described as follows: biochemical. More on the design: His6 (hexahistidine); made in house; host or cells: E. coli Top10. The class given is binding. How it is done:
Trp-to-dansyl FRET was measured as above.

The target of a further assay is Gαo-GDP (Drosophila melanogaster, UniProt P16378). The assay is described as follows: biochemical. How it is done:
(§1) Hexahistidine-tagged Drosophila Gαo, Gαo[W132F; W212F] and Gαo[W132F; W259F] were purified following. In brief, Top10 bacteria transformed with the corresponding construct were grown in LB media until an OD600=0.6, expression was induced with 0.1 mM IPTG and cells further grown overnight at room temperature. Cells were harvested, resuspended in PBS supplemented with Complete Protease Inhibitor cocktail (Roche) and lysed with Lysozyme and sonication. Binding of the His6 tagged proteins to the Ni-NTA agarose was conducted in 10 mM Imidazole in PBS. After washing in 20 mM Imidazole/PBS the proteins were eluted in 200–250 mM Imidazole/PBS. […] The 36-mer GoLoco1 peptide and the GoLoco1 peptide with the dansyl (5-(dimethylamino)naphthalene-1-sulfonyl) group attached to the side chain of the N-terminal lysine were synthesized by Pepscan Presto BV. Non-dansylated GoLoco1 was dissolved in water, dansyl-GoLoco1 was dissolved at 10 mM in 50% propan-2-ol and stored at -20°C.
(§2) Fluorescence measurements were performed at RT using the Biotek SynergyMx plate reader. For all experiments, the Gαo subunits were pre-incubated with 1 mM GDP or GTPγS for >30 min at RT. For FRET measurements, preloaded Gαo was added in a final concentration of 10 μM to increasing concentration of dansylated GoLoco1 in HKB (50 mM Hepes-KOH, 100 mM KCl, 10 mM NaCl, 2 mM EGTA, 5 mM MgCl2, 1 mM DTT) and incubated for 30 min before measurement.

For assay [8], the target named is Hexahistidine-tagged Drosophila Gαo (class II isoform), wild type (Drosophila). The assay is described as follows: FRET or BRET; competition: Gαo preloaded with GTPγS and dansylated GoLoco1 at 1:1 (5–10 μM), pre-incubated 10 min, then increasing unlabelled GoLoco1 in HKB, 30 min, RT; Trp-to-dansyl FRET.
For assay [9] the target is unchanged. The assay is described as follows: FRET or BRET; competition: Gαo preloaded with GDP and dansylated GoLoco1 at 1:1 (5–10 μM), pre-incubated 10 min, then increasing unlabelled GoLoco1 in HKB, 30 min, RT; Trp-to-dansyl FRET.
Assay [10] addresses T1, Gαo-GTPγS. Put plainly: biochemical. As for the experimental part:
as §1, §2

What is called Kd is the equilibrium constant for the complex coming apart. What is called Ki is the equilibrium dissociation constant of an inhibitor or competing ligand from its target.

T1 sequence (P16378 other isoform, or with tags, fused parts or gaps): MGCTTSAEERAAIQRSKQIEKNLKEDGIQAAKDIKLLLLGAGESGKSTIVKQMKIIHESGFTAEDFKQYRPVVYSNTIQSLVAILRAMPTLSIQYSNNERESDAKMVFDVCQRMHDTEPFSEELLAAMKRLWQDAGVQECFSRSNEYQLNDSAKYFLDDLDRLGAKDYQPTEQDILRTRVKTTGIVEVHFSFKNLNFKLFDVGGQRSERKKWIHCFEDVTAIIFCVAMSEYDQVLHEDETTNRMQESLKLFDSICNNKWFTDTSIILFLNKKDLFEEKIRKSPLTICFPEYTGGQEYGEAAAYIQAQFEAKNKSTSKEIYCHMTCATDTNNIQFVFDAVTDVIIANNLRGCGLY
Chain of Gαo-GDP (P16378 other isoform, or with tags, fused parts or gaps): as above

With “dansylated GoLoco1 peptide of Drosophila Pins”, the Kd was 4.6 µM in assay [1] and 2.1 µM in assay [2]. Besides, the FRET efficiency E is 0.127 in assay [3], 0.478 in assay [4], 0.544 in assay [5] and 0.474 in assay [6].
For `CC[C@H](C)[C@H](NC(=O)[C@H](CO)NC(=O)[C@H](CS)NC(=O)[C@H](CCCNC(=N)N)NC(=O)[C@H](CCC(N)=O)NC(=O)[C@H](CC(=O)O)NC(=O)[C@H](CC(=O)O)NC(=O)[C@H](CCSC)NC(=O)[C@H](CCCNC(=N)N)NC(=O)[C@H](CCCCN)NC(=O)[C@H](CO)NC(=O)[C@H](CCC(N)=O)NC(=O)[C@H](CO)NC(=O)[C@H](CCCNC(=N)N)NC(=O)[C@H](CO)NC(=O)[C@H](CC(C)C)NC(=O)[C@H](CCSC)NC(=O)[C@H](CCC(=O)O)NC(=O)[C@H](Cc1ccccc1)NC(=O)[C@H](Cc1ccccc1)NC(=O)[C@H](CC(=O)O)NC(=O)[C@H](CC(=O)O)NC(=O)[C@H](CC(=O)O)NC(=O)[C@@H](N)CCCCNS(=O)(=O)c1cccc2c(N(C)C)cccc12)C(=O)N[C@@H](CCCCN)C(=O)N[C@H](C(=O)N[C@@H](CC(N)=O)C(=O)N1CCC[C@H]1C(=O)N[C@@H](CO)C(=O)NCC(=O)N[C@@H](C)C(=O)N1CCC[C@H]1C(=O)N[C@@H](C)C(=O)N[C@H](C(=O)N[C@@H](C)C(=O)N[C@H](C(=O)O)[C@@H](C)O)C(C)C)C(C)C` [dGoLoco1] (H-K(Dansyl)DDDFFEMLSRSQSKRMDDQRCSIKVNPSGAPAVAT-OH), the Kd at Gαo-GTPγS [7] came to 2.1 µM; at Gαo-GDP, 4.6 µM.
Turning to “GoLoco1 peptide of Drosophila Pins (unlabelled)”, the figures for the Ki in assay [8] and in assay [9] were 10.6 µM and 17.6 µM, respectively.
As for “KDDDFFEMLSRSQSKRMDDQRCSIKVNPSGAPAVAT [GoLoco1]”, the Ki on Gαo-GTPγS [10] worked out at 10.6 µM; on Gαo-GDP it was 17.6 µM.
